Patent US20220235344A1, “TRYPSIN VARIANTS WITH IMPROVED ENZYMATIC PROPERTIES” (BIOPHARMA TRANSLATIONSINSTITUT DESSAU FORSCHUNGS GMBH, priority 2018, published 2022)
Values joined by “and” are separate entries in the source; they are usually repeats but may differ in a detail not shown here. Equal values may be shown once.

Legend:
[1] = target: T1, Bz-PGGYRAHAG-OH (acyl donor) / H-RAHAK(DNP)-OH (acyl acceptor) (Rattus norvegicus, UniProt P00763, D194K/K66E/Y45H/Y65H); experiment: Maximum product yield of transamidation (Table 7); assay type: biochemical; settings: Zinc ions (100 μM): yes; two equivalents of acyl acceptor and 250 μM acyl donor
T1 construct: made in house; host or cells: Pichia pastoris X-33
T1 sequence (P00763 24-246 Y45H/Y65H/K66E/D194K): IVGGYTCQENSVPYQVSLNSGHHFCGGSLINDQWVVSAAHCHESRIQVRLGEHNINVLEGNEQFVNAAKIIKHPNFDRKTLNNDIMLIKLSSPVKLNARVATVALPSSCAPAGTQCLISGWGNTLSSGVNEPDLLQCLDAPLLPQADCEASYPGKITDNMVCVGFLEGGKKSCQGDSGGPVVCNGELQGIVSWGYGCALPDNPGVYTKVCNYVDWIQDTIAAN
Protocol: (§1) Model transamidation reactions were performed in a solution containing 15 to 250 μM acyl donor, 2 eq. of the corresponding acyl acceptor, varying concentrations of trypsin variant, 100 mM HEPES/NaOH pH 7.8, ±0.1 mM ZnC12, 100 mM NaCl, 10 mM CaCl2) at 30° C. Acyl donor and acyl acceptor had the same amino acids in P1′-P3′ position, e.g. Bz-[…]+H-RAHAK-OH or Bz-[…]+H-RKKAK-OH. Variations are indicated. The acyl acceptor could be equipped with a 2,4-Dinitrophenyl group (DNP) at the side chain of the terminal lysine, e.g. H-RAHAK(DNP)-OH or H-RKKAK(DNP)-OH. The reactions were started by the addition of enzyme. To record the time course of product formation and/or for kinetic evaluation of the reaction several aliquots of the reaction mixture were quenched with 25% (v/v) acetic acid at distinct time points within up to 4 hours. The composition of the reaction mixture was analyzed by UPCL with method I or II, depending on the absence (method 1) or presence (method II) of a 2,4-dinitrophenyl group within the acyl acceptor (see example 1). Measurements were performed as duplicates and errors were less than 5%.

[2] = target: T2, Bz-PGGYRAHAG-OH (acyl donor) / H-RAHAK-OH (acyl acceptor) (Rattus norvegicus, UniProt P00763, D194K/K66E/Y45H/Y65H); experiment: Model transamidation at high and low substrate concentrations, Trypsiligase II; assay type: biochemical; settings: for product yield (%) / kcat, AL^app (mkat/mol) / kcat, AL^app/kcat, HL^app / kcat, HL^app (mkat/mol): 0.1 mM ZnCl2
T2 construct: monomeric enzyme species (about 24 kDa); made in house; host or cells: Pichia pastoris X-33 (pPICZalphaA, secreted)
T2 sequence (P00763 24-246 Y45H/Y65H/K66E/D194K): T1 sequence (P00763 24-246 Y45H/Y65H/K66E/D194K)
Protocol: as §1
The suitability of variant A2C8 and K7F11 as transamidases was further investigated in comparison to the native Trypsiligase II. Therefore the enzymatic parameters for the catalyzed transamidation reaction were determined by a model transamidation reaction using peptide substrates with the preferred recognition motive. In addition the model transamidation reaction was performed at high (250 μM) and low (15 μM) substrate concentrations to check, whether the new biocatalysts could also efficiently catalyze the desired reaction at low substrate concentration, which is a crucial requirement for the modification of therapeutic proteins. […] It was assumed that an improved transamidation activity is reached by introducing mutations which improve the affinity of the biocatalyst for the nucleophilic peptide and/or reduce its hydrolysis activity. Therefore corresponding experimental data describing both parameters for the native Trypsiligase II as well as variant A2C8 were determined.

B1: Trypsiligase II (trypsin variant Y39H/Y59H/K60E/D189K) (protein)
chain: T1 sequence (P00763 24-246 Y45H/Y65H/K66E/D194K)
B1 was tested, and the “product yield (%)” value [1] was 18.1%, the “product yield (%)” value ([2]; [Substrate] 15 μM Bz-PGGYRAHAG-OH, 30 μM H-RAHAK-OH) was 3% and 3.2% and the “kcat, AL^app (mkat/mol)” value ([2]; [Substrate] 15 μM) was 0.33 mkat/mol. The “kcat, AL^app/kcat, HL^app” value ([2]; [Substrate] 15 μM) was 0.1, the “kcat, HL^app (mkat/mol)” value ([2]; [Substrate] 15 μM) was 2.84 mkat/mol and the “product yield (%)” value ([2]; [Substrate] 250 μM Bz-PGGYRAHAG-OH, 500 μM H-RAHAK-OH) was 17% and 17.3%. For the same molecule, the “kcat, AL^app (mkat/mol)” value ([2]; [Substrate] 250 μM) was 14.40 mkat/mol, the “kcat, AL^app/kcat, HL^app” value ([2]; [Substrate] 250 μM) was 0.9 and the “kcat, HL^app (mkat/mol)” value ([2]; [Substrate] 250 μM) was 16.00 mkat/mol. The “turnover rate of hydrolysis relative to aminolysis” value ([2]; substrate concentration 15 μM) was “tenfold higher turnover rate”.
